The values below come from paper PMC8203622, “Tight docking of membranes before fusion represents a metastable state with unique properties” (Nature Communications, 2021).

For this experiment, the target named is T1, syntaxin-1A (183–288) (Rattus norvegicus, UniProt P32851 183-288).
T1 construct: syntaxin-1A, Rattus norvegicus, residues 183-288
As to the kind of experiment: assembly of a complex by mixing, isolated by ion exchange chromatography (MonoQ); purified proteins mixed overnight at 4 °C in a buffer containing CHAPS, then MonoQ. As to conditions: both partners purified.

T1 sequence (P32851 183-288): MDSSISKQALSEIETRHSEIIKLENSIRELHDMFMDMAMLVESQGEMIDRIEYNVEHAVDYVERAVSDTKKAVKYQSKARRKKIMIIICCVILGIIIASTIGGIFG

B1: synaptobrevin-2 fragment (49–96) (domain or fragment, Rattus norvegicus, UniProt P63045 49-96, looked up)
chain: NVDKVLERDQKLSELDDRADALQAGASQFETSAAKLKRKYWWKNLKMM
notes: synaptobrevin-2, Rattus norvegicus, residues 49-96; also called synaptobrevin fragment 49–96
Take B1: the binding result is recorded as “binds”.
